Test results as given in patent US20230341395A1.
pKd: −log10 of the molar value.

Target: Recombinant SARS-CoV-2 Spike protein antigen (Z03501, Genscript) (SARS-CoV-2) (UniProt P0DTC2)

## Monoclonal antibody against the SARS-CoV-2 Spike protein (A02038, Genscript)
  pKd: 8.62
  koff: 0.000603 s⁻¹
  kon: 252000 M⁻¹ s⁻¹
